The text below walks through data of PMC4967814.

In the test the target is each of 12 IFNα subtypes and IFNω (ISRE-luciferase reporter assay, median IC50).

B1: rontalizumab, in-house-generated recombinant (antibody, INN chains, looked up, V domains shown)
VH: EVQLVESGGGLVQPGGSLRLSCATSGYTFTEYIIHWVRQAPGKGLEWVASINPDYDITNYNQRFKGRFTISLDKSKRTAYLQMNSLRAEDTAVYYCASWISDFFDYWGQGTLVTVSS
VL: DIQMTQSPSSLSASVGDRVTITCRASQSVSTSSYSYMHWYQQKPGKAPKVLISYASNLESGVPSRFSGSGSGTDFTLTISSLQPEDFATYYCQHSWGIPRTFGQGTKVEIKR
In the case of B1, the median IC50 of inhibition of the IFN-induced ISRE-luciferase reporter response in transfected HEK293 cells was determined as 0.0109 µg/mL.
